This is an account of results in publication PMC7641749 (Nucleic Acids Research, 2020).

Where “and” joins values, the source holds several entries; their conditions need not be identical. Equal values may be shown once.

In the assay the target is human ERH (residues 1–104), His6-tagged (human, UniProt P84090 1-104). In words: ITC. In general terms: ITC needs no label: the signal is the heat of the interaction.
human ERH (residues 1–104), His6-tagged, sequence (P84090 whole entry, the tested form may be a part): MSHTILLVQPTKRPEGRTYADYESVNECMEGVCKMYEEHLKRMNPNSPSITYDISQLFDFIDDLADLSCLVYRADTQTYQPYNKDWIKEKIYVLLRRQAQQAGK

PRTARHAPAVRKFSPDLKLLKDVKISVSFTE [His6-SUMO tagged DGCR8^96–126]: the Kd is ~19.6 µM and ~19.7 µM; the “stoichiometry N” value is 0.965.

Usually Kd stands for the equilibrium constant for the complex coming apart. As a reminder, the stoichiometry N is the number of molecules, sites or subunits per partner or assembly.
